US6214868A, “Method for preventing or treating coronary restenosis with catechin” (Sam-A Pharm. Co., Ltd., priority 2000, dated 2001)

Columns and labels:
Type in all cases: cell-based
p44^mapk = assay: Phosphorylation of p44^mapk in rat VSMCs (western blotting); details: in words; western blot
Procedure: (§1) The resulting culture was incubated for 24 hours. 50 ng/ml of PDGF-BB was added thereto and kept for 5 minutes. […] The above procedure was also repeated without PDGF-BB treatment.
(§2) The VSMC was lysed and the VSMC lysate(corresponding amount to 70 μg proteins) was subjected to SDS-PAGE. The proteins separated on the gel was transferred to a nitrocellulose membrane and the membrane was saturated with Tris buffered saline(TBS) containing 3% milk protein. A primary antibody(Promega, dilution ratio: 1:5,000) for catalytically activated p44^mapk /p42^mapk whose threonine and tyrosine residues are phosphorylated, was added thereto and kept over night. The membrane was washed three times with TBS containing 0.05% Tween 20. The membrane was reacted with a horseradish peroxidase-conjugated anti-IgG secondary antibody and developed using Amersham ECL kit. Linearity of MAPK concentration-ECL signal correlation was examined using standard p42, a recombinant, activated MAPK(Upstate Biotechnology), and serially diluted artery tissue homogenate. Bands on the X-ray film were quantified using Molecular Dynamics personal laser densitometer.

rat VSMCs = assay: Inhibition of VSMC growth, 3H-thymidine DNA incorporation, in the presence of PDGF-BB; details: in words; 50 ng/ml PDGF-BB, control data
Procedure: Each rat was suffocated with CO2, and its chest was disinfected and incised to remove the arteriae aorta. All operative apparatus and glass articles were autoclaved and all operations were conducted on a clean bench. The arteriae aorta was dipped in physiological salt solution(PSS) and its adipose tissues were removed. The resulting arteriae aorta was treated with 0.2% collagenase in an incubator maintained at 37° C. for 30 minutes. Its endothelium and adventitia were removed and the resulting arteriae aorta was ground up. A complete DMEM (DMEM containing 10% FBS, an antibiotic and glutamine) containing 0.2% collagenase was added thereto and the resulting mixture was kept at 37° C. for 4 hours while shaking with an orbital shaker.
The resulting mixture was centrifuged at 1,500×g for 5 minutes to remove the collagenase and the cell precipitate was suspended in an appropriate amount of complete DMEM. […]
The wells were washed twice with a serum-free medium, Hunger medium(Gibco), and fresh Hunger medium was added thereto. […] A 50 μl portion of the resulting reaction mixture was subjected to protein quantification. Further, a 100 μl portion of the resulting reaction mixture was added to 5 ml of a cocktail solution to measure the radioactivity, thereby determining the amount of ^3 H-thymidine incorporated into the cell. […]

p42^mapk = assay: Phosphorylation of p42^mapk in rat VSMCs (western blotting); details: in words; western blot
Procedure: as §1, §2

B1: PDGF-BB: platelet derived growth factor(PDGF)-BB (protein, UniProt P01127 82-190, looked up)
Platelet-derived growth …: SLGSLTIAEPAMIAECKTRTEVFEISRRLIDRTNANFLVWPPCVEVQRCSGCCNNRNVQCRPTQVQLRPVQVRKIEIVRKKPIFKKATVTLEDHLACKCETVAAARPVT
modifications: BB homodimer
phosphorylated p44^mapk /p42^mapk band density (p44) (p44^mapk): enhanced density as compared with the blank | VSMC growth on PDGF-BB treatment (rat VSMCs): greatly enhances the VSMC growth | phosphorylated p44^mapk /p42^mapk band density (p42) (p42^mapk): enhanced density as compared with the blank
